Reference: PMC5457915, “Real-time analysis of the binding of fluorescent VEGF165a to VEGFR2 in living cells: Effect of receptor tyrosine kinase inhibitors and fate of internalized agonist-receptor complexes” (Biochemical Pharmacology, 2017)
Where “and” joins values, the source holds several entries; their conditions need not be identical. Equal values may be shown once. Entries after “also recorded” stand apart in the source; their conditions may differ. One block for each molecule: values may come before it.

Assays:
VEGFR2 = VEGFR2 (Homo sapiens, UniProt P35968); assay: Confocal / structured illumination microscopy of VEGF165a-TMR and VEGFR2 location after RTKI pre-treatment; type: cell-based; design: full length VEGFR2, tagged with the bioluminescent protein NanoLuc; IL-6 signal peptide (N); expressed in transfected cells; settings: RTKI 30 min pre-incubation, then 10 nM VEGF165a-TMR 30 min
Procedure: On the day of the assay, cells were washed three times with HBSS/0.1% protease free BSA (vehicle). Receptor tyrosine kinase inhibitors were added at this point as aliquots to the appropriate wells and cells incubated for 30 min at 37 °C. Cells were then stimulated with 10 nM VEGF165a-TMR for 30 min at 37 °C in the dark.
All cells were then fixed using 3% PFA/PBS (10 min at room temperature), washed with PBS and mounted onto slides using Prolong Gold antifade reagent (P10144; Thermo Fisher Scientific, USA). TetraSpeck™ microspheres (0.1 μm; T7279, Thermo Fisher Scientific, USA) were included in each experiment to allow X/Y/Z channel alignment correction in image processing. […] Images were manually processed with consistent raw scaling between and within experiments.

NLuc-VEGFR2 = target: T1, NLuc-VEGFR2 (Homo sapiens, UniProt P35968); assay: NanoBRET ligand binding (saturation/competition) in living HEK293T NLuc-VEGFR2 cells; settings: maximal response relative to binding of VEGF165a-TMR alone; RTKI 30 min pre-treatment, 60 min ligand
T1 construct: full length VEGFR2, tagged with the bioluminescent protein NanoLuc; IL-6 signal peptide (N); expressed in transfected cells
Procedure: On the day of the assay, medium was replaced with 50 μl per well HBSS/0.1% protease free BSA. Where appropriate, RTKIs were added 30 min prior to agonist. For competition experiments, a fixed concentration of fluorescent VEGF165a-TMR was added simultaneously with competing unlabeled VEGF isoforms to triplicate wells for the time specified (10, 30 or 60 min) and plates co-incubated at 37 °C in the dark. For saturation experiments a range of concentrations of VEGF165a-TMR were added in the presence or absence of a competing concentration (30 nM) of unlabeled VEGF165a and incubated for 60 min at 37 °C in the dark. The NanoLuc substrate furimazine (N1130; Promega Corporation, USA) was then added at a final concentration of 10 μM. […] For all experiments, sequential recordings were performed at room temperature using a PHERAstar FS plate reader (BMG Labtech, Germany) using 460 nm (80 nm bandpass; donor NanoLuc emission) and >610 nm longpass filters (acceptor emission). Raw BRET ratios were calculated from the ratio of acceptor to donor emission values. For real-time ligand association kinetics experiments, cells were incubated with vehicle for 30 min at 37 °C. Furimazine (10 μM) was then added and plates equilibrated at 37 °C in the PHERAstar FS plate reader for 5 min.
Equilibrium binding: All data were analysed using Prism 6 (GraphPad; San Diego, CA, USA). NanoBRET competition experiments were fitted as raw BRET ratios using non-linear least squares regression (variable slope) with no constraints used. Saturation curves were fitted simultaneously for total (VEGF165a-TMR alone) and non-specific binding (top concentration of competing VEGF165a alone) using both one and two site fits. Background and non-specific binding parameters were shared across all data sets.
Binding affinities (Ki) of the unlabeled ligands were calculated using the Cheng-Prusoff equation: Ki=IC50/1+[L]/KD where [L] is the concentration of fluorescent ligand used (nM). KD values (nM) were derived from saturation binding curves. […]

[1] = target: NLuc-VEGFR2 (full length human VEGFR2 with NanoLuc on its N-terminus) (human) (UniProt P35968); assay: FRET or BRET; NanoBRET competition on living HEK293T NLuc-VEGFR2 cells; fixed VEGF165a-TMR (0.1-3 nM) added simultaneously with increasing unlabeled VEGF isoform, 60 min at 37 °C, HBSS/0.1% BSA; IC50 (molar) converted to pKi by Cheng-Prusoff; also linear regression of IC50 against [VEGF165a-TMR]; apparent
[2] = target: NLuc-VEGFR2 (full length human VEGFR2 with NanoLuc on its N-terminus) (human) (UniProt P35968); assay: FRET or BRET; NanoBRET competition on living HEK293T NLuc-VEGFR2 cells; 1 μM cediranib 30 min at 37 °C, then VEGF165a-TMR (0.5-3 nM) with unlabeled VEGF165a for 60 min at 37 °C
[3] = target: NLuc-VEGFR2 (full length human VEGFR2 with NanoLuc on its N-terminus) (human) (UniProt P35968); assay: FRET or BRET; NanoBRET competition on living HEK293T NLuc-VEGFR2 cells; 1 μM cediranib 30 min at 37 °C, then VEGF165a-TMR (0.5-3 nM) with unlabeled VEGF165a for 10 min at 37 °C
[4] = target: NLuc-VEGFR2 (full length human VEGFR2 with NanoLuc on its N-terminus) (human) (UniProt P35968); assay: FRET or BRET; NanoBRET competition on living HEK293T NLuc-VEGFR2 cells; 1 μM cediranib 30 min at 37 °C, then VEGF165a-TMR (0.5-3 nM) with unlabeled VEGF165a for 30 min at 37 °C
[5] = target: NLuc-VEGFR2 (full length human VEGFR2 with NanoLuc on its N-terminus) (human) (UniProt P35968); assay: FRET or BRET; NanoBRET competition on living HEK293T NLuc-VEGFR2 cells; vehicle 30 min at 37 °C, then VEGF165a-TMR (0.5-3 nM) with unlabeled VEGF165a for 60 min at 37 °C
[6] = target: NLuc-VEGFR2 (full length human VEGFR2 with NanoLuc on its N-terminus) (human) (UniProt P35968); assay: FRET or BRET; NanoBRET competition on living HEK293T NLuc-VEGFR2 cells; vehicle 30 min at 37 °C, then VEGF165a-TMR (0.5-3 nM) with unlabeled VEGF165a for 30 min at 37 °C
[7] = target: NLuc-VEGFR2 (full length human VEGFR2 with NanoLuc on its N-terminus) (human) (UniProt P35968); assay: FRET or BRET; NanoBRET competition on living HEK293T NLuc-VEGFR2 cells; vehicle 30 min at 37 °C, then VEGF165a-TMR (0.5-3 nM) with unlabeled VEGF165a for 10 min at 37 °C
[8] = target: NLuc-VEGFR2 (full length human VEGFR2 with NanoLuc on its N-terminus) (human) (UniProt P35968); assay: FRET or BRET; NanoBRET saturation on living HEK293T NLuc-VEGFR2 cells; VEGF165a-TMR 0.1-3 nM with or without 30 nM unlabeled VEGF165a (non-specific binding), 60 min at 37 °C, HBSS/0.1% BSA; one site fit; apparent
[9] = target: VEGF165a-TMR (fluorescent VEGF165a labeled with 6-TMR-PEG-CBT on a single N-terminal cysteine of each protomer) (human); assay: SDS-PAGE with and without DTT, fluorescence scan; purified VEGF165a-TMR in the presence or absence of 100 mM DTT, scanned on a Typhoon 9400 (Ex 532 nm, Em 580 nm)
[10] = target: VEGF165a-TMR (fluorescent VEGF165a labeled with 6-TMR-PEG-CBT on a single N-terminal cysteine of each protomer) (human); assay: fluorescence correlation spectroscopy; solution FCS of VEGF165a-TMR (0.25-10 nM) in HBSS with 0.1% protease-free BSA; also without BSA and with 10 mM DTT (30 min at 37 °C); number of fluorescent particles against the concentration calculated for a dimer
[11] = target: NLuc-VEGFR2 (full length human VEGFR2 with NanoLuc on its N-terminus) (human) (UniProt P35968); assay: FRET or BRET; NanoBRET real-time association kinetics on living HEK293T NLuc-VEGFR2 cells; VEGF165a-TMR 1-20 nM, read every 30 s for 16 min at 37 °C; kobs against concentration, linear only at the three lowest concentrations
[12] = target: NLuc-VEGFR2 (full length human VEGFR2 with NanoLuc on its N-terminus) (human) (UniProt P35968); assay: FRET or BRET; NanoBRET saturation on living HEK293T NLuc-VEGFR2 cells, 30 min pre-incubation with 1 μM cediranib (Fig. 6b)
[13] = target: NLuc-VEGFR2 (full length human VEGFR2 with NanoLuc on its N-terminus) (human) (UniProt P35968); assay: FRET or BRET; NanoBRET saturation on living HEK293T NLuc-VEGFR2 cells, without cediranib (Fig. 6b)
[14] = target: T2, NLuc-VEGFR2 (full length human VEGFR2 with NanoLuc on its N-terminus) (human, UniProt P35968-1 20-1356); assay: FRET or BRET; NanoBRET competition on living HEK293T NLuc-VEGFR2 cells; fixed VEGF165a-TMR (0.1-3 nM) added simultaneously with increasing unlabeled VEGF isoform, 60 min at 37 °C, HBSS/0.1% BSA; IC50 (molar) converted to pKi by Cheng-Prusoff; also linear regression of IC50 against [VEGF165a-TMR]; apparent; settings: one partner purified
T2 construct: VEGFR2, human, subcloned from an Origene plasmid (NM_002253); called full length VEGFR2; Open reading frame: IL-6 signal peptide, NanoLuc, Gly-Ser-Ser-Gly(AIA) linker, VEGFR2 (vector pF-sNnK CMV/neo); also called NanoLuc VEGFR2; NanoLuc-tagged VEGFR2; not shown: NanoLuc, N-terminal, kept
T2 sequence (P35968 20-1356): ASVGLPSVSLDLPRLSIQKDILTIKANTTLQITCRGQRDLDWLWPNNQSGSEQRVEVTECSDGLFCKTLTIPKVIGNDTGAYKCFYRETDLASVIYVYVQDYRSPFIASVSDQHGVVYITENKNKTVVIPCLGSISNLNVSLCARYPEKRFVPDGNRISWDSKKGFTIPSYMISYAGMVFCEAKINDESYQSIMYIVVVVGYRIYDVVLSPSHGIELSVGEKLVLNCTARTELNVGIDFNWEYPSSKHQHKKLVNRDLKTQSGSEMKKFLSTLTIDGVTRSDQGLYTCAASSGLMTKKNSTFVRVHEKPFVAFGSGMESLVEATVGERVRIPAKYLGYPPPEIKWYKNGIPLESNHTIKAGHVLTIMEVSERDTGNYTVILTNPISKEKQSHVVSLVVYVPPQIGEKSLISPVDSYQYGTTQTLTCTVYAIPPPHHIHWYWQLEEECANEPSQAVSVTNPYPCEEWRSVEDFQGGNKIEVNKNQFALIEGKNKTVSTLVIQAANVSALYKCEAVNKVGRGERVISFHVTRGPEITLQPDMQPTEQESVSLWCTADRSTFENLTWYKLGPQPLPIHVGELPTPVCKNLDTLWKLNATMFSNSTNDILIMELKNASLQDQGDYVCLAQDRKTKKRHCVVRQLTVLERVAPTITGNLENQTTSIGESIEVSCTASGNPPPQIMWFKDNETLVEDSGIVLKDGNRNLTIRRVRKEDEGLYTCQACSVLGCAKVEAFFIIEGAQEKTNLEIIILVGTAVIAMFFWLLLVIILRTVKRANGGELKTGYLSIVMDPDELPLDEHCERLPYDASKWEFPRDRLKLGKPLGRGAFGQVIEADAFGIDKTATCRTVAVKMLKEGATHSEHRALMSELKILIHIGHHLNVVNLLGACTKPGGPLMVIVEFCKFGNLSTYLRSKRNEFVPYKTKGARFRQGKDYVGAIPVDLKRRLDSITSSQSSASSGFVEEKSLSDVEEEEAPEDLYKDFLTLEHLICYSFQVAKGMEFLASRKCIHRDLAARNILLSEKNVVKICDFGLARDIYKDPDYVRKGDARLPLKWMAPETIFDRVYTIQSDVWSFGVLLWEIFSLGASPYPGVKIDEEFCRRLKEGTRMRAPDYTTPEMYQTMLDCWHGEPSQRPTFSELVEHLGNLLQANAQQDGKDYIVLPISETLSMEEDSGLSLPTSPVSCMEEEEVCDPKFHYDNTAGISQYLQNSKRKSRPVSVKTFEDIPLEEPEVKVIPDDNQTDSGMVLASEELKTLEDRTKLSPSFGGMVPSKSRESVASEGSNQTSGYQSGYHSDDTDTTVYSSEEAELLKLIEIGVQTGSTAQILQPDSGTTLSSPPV

NLuc-VEGFR2 (full length human VEGFR2 with NanoLuc on its N-terminus) (human), sequence (P35968 20-1356): as above
T1 sequence (P35968 20-1356): as above
VEGFR2, sequence (P35968 20-1356): as above

- NanoBRET % Increase in binding of 10 nM VEGF165a-TMR (NLuc-VEGFR2): 139.0 ± 4.4% and 139.0 ± 2.0 (4) %
Molecule: COc1cc2c(Oc3ccc4[nH]c(C)cc4c3F)ncnc2cc1OCCCN1CCCC1 [Cediranib]
- effect on VEGFR2 internalization by VEGF165a-TMR / cellular location of VEGF165a-TMR (VEGFR2): prevented; also recorded: largely localised to the cell membrane

- effect on VEGFR2 internalization by VEGF165a-TMR / cellular location of VEGF165a-TMR (VEGFR2): prevented
- NanoBRET % Increase in binding of 10 nM VEGF165a-TMR (NLuc-VEGFR2): 144.8 ± 3.5 (4) %
Molecule: Cc1ccc(Nc2nccc(N(C)c3ccc4c(C)n(C)nc4c3)n2)cc1S(N)(=O)=O [Pazopanib]

- effect on VEGFR2 internalization by VEGF165a-TMR / cellular location of VEGF165a-TMR (VEGFR2): prevented
- NanoBRET % Increase in binding of 10 nM VEGF165a-TMR (NLuc-VEGFR2): 152.8 ± 7.1 (4) %
Molecule: COc1cc2c(Nc3ccc(Br)cc3F)ncnc2cc1OCC1CCN(C)CC1 [Vandetanib]

- Ki [1]: 0.22 nM
- pKi [1]: 9.81
- pKi [2]: 9.18
- pKi [3]: 9.17
- pKi [4]: 9.23
- pKi [5]: 9.28
- pKi [6]: 8.99
- pKi [7]: 8.93
Molecule: VEGF165a (recombinant human, R&D Systems) (ligand)

- Kd [1]: 0.85 nM
- Kd [8]: 0.92 nM
- stoichiometry N [9]: 2
- stoichiometry N [10]: 2
- Kd [11]: 2.27 nM
- koff [11]: 0.00183 s⁻¹
- kon [11]: 797000 M⁻¹ s⁻¹
- Kd [12]: 1.18 nM
- Kd [13]: 1.14 nM
Molecule: VEGF165a-TMR (fluorescent VEGF165a labeled with 6-TMR-PEG-CBT on a single N-terminal cysteine of each protomer) (ligand)

- pKi [14]: 9.41
B1: VEGF165b (recombinant human, R&D Systems) (ligand)
chain: APMAEGGGQNHHEVVKFMDVYQRSYCHPIETLVDIFQEYPDEIEYIFKPSCVPLMRCGGCCNDEGLECVPTEESNITMQIMRIKPHQGQHIGEMSFLQHNKCECRPKKDRARQENPCGPCSERRKHLFVQDPQTCKCSCKNTDSRCKARQLELNERTCRSLTRKD

- pKi [14]: 8.99
B2: VEGF189a (recombinant human, R&D Systems) (ligand)
chain: APMAEGGGQNHHEVVKFMDVYQRSYCHPIETLVDIFQEYPDEIEYIFKPSCVPLMRCGGCCNDEGLECVPTEESNITMQIMRIKPHQGQHIGEMSFLQHNKCECRPKKDRARQEKKSVRGKGKGQKRKRKKSRYKSWSVPCGPCSERRKHLFVQDPQTCKCSCKNTDSRCKARQLELNERTCRCDKPRR

- pKi [14]: 8.74
B3: VEGF145a (recombinant human, R&D Systems) (ligand)
chain: APMAEGGGQNHHEVVKFMDVYQRSYCHPIETLVDIFQEYPDEIEYIFKPSCVPLMRCGGCCNDEGLECVPTEESNITMQIMRIKPHQGQHIGEMSFLQHNKCECRPKKDRARQEKKSVRGKGKGQKRKRKKSRYKSWSVCDKPRR

- pKi [14]: 9.47
B4: VEGF121a (recombinant human, R&D Systems) (ligand)
chain: APMAEGGGQNHHEVVKFMDVYQRSYCHPIETLVDIFQEYPDEIEYIFKPSCVPLMRCGGCCNDEGLECVPTEESNITMQIMRIKPHQGQHIGEMSFLQHNKCECRPKKDRARQEKCDKPRR
